Experimental data taken from patent US9688764B2, “Methods of treating breast cancer by administering anti-human prolactin receptor (PRLR) antibodies” (REGENERON PHARMACEUTICALS, INC., priority 2013, dated 2017).

Test system: T47D#11 tumors
Assay: Tumor growth inhibition in xenograft-bearing mice
Format: in vivo, CB17 SCID mice
Conditions: multi-dose, 5 and 15 mg/kg
Source text: Briefly, 20×10^6 MCF7/PRLR cells (ATCC HTB-22 transfected with full length hPRLR as previously described) were implanted subcutaneously into the left mammary fat pad of female NCr nude mice. In other studies, 10×10^6 PC3/PRLR (ATCC CRL-1435 transfected with full length hPRLR as previously described) were implanted subcutaneously into the left flank of male SCID mice. Additionally, 10×10^6 parental T47D (ATCC HTB-133) or […] T47D#11 cells (ATCC HTB-133 serially passaged in vivo as described below) were subcutaneously implanted into the left flank of female CB17 SCID mice. All mice were obtained from Taconic (Hudson, N.Y.). Each bolus of cells was supplemented with a 90-day estrogen release pellet (1.7 mg/pellet; Innovative Research America, Sarasota Fla.). Once tumors had reached an average volume of 250 mm^3, mice were randomized into groups of seven and dosed with anti-PRLR antibody-drug conjugates of the invention or control reagents. Control reagents included PBS vehicle, free methyl-disulfide DM1 (DM1-SMe) and isotype Control 1-DM1.
In multi-dose studies, mice were dosed once a week for a total of three weeks with tumor volumes and body weights being monitored twice weekly throughout the study. Test ADCs were dosed at 5 and/or 15 mg/kg in the multi-dose studies. In single-dose studies, mice received a single dose of test ADC, and tumor volumes and body weights were monitored twice weekly throughout the study. Test ADCs were dosed at 1, 2.5, 5, and 15 mg/kg in the single-dose studies. Average tumor size as well as tumor growth inhibition relative to the vehicle treated group were calculated for each group. Tumors were measured with calipers twice a week until the average size of the vehicle group reached 1000 mm^3. Tumor size was calculated using the formula (length×width^2)/2. Tumor growth inhibition was calculated according to the following formula: (1−((Tfinal−Tinitial)/(Cfinal−Cinitial)))*100, where T (treated group) and C (control group) represent the mean tumor mass on the day the vehicle group reached 1000 mm^3. […] Results are summarized in Tables 21-25 (multi-dose) and Table 26 (single dose). (NT=not tested in the particular experiment shown).

B1: H1H6958N2-DM1: anti-PRLR antibody H1H6958N2 conjugated to DM1 through an SMCC linker (conjugate)
VH: QVQLVESGGGVVQPGRSLRLSCGASGFTFRNYGMQWVRQGPGKGLEWVTLISFDGNDKYYADSVKGRFTISRDNSKNTLFLQMNSLRTEDTAVYYCARGGDFDYWGQGTLVTVSS
VL: DIQMTQSPSSLSASVGDRVTITCRASQDIRKDLGWYQQKPGKAPKRLIYAASSLHSGVPSRFSGSGSGTEFTLTISSLQPEDFATYYCLQHNSYPMYTFGQGTKLEIK
- effect on T47D#11 tumor growth: potently inhibited tumor growth
